PMC3913770, “Characterization of New Polyol/H^+ Symporters in Debaryomyces hansenii” (PLoS ONE, 2014)

Assays:
DhSyl1 = biological target: T1, DhSyl1 (Debaryomyces hansenii, UniProt B5RT81); assay: inhibition of [U-14C] sorbitol uptake; format: cell-based; settings: 1.5 mM [U-14C] sorbitol, 20 mM mannitol
T1 construct: gene DEHA2C05896g; full-length ORF (649 aa) without stop, C-terminal GFP, plasmid pUG35, in S. cerevisiae YSH 1172 (strain MLY9); any CUG codon is read as Leu in the host
T1 sequence (B5RT81 1-649): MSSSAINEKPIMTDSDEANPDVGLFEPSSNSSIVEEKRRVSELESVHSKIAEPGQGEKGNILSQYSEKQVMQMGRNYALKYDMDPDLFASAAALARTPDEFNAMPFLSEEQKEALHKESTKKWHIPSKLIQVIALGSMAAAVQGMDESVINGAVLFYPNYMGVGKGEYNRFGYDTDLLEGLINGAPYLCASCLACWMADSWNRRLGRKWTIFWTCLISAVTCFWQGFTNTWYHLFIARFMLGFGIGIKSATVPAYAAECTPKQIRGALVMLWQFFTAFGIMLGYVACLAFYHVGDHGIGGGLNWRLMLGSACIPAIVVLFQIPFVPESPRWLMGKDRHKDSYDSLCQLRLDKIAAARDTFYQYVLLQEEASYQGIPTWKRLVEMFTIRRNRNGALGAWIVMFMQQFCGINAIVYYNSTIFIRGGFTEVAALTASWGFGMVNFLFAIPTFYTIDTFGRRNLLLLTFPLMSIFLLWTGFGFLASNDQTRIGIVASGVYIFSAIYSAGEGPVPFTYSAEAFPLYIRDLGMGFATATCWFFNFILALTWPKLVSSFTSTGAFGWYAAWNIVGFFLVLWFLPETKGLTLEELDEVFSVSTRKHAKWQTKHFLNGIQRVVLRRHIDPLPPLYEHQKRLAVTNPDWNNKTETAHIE

DhSgl1 = biological target: T2, DhSgl1 (Debaryomyces hansenii, UniProt Q6BN62); assay: initial extracellular alkalinization (H+ symport) in unbuffered yeast cell suspension, Michaelis-Menten fit; format: cell-based; settings: pH 5, proton symport, one H+ per polyol assumed, maltose-grown S. cerevisiae cells
T2 construct: gene DEHA2E24310g; full-length ORF (626 aa) without stop, C-terminal GFP, plasmid pUG35, in S. cerevisiae YSH 1172 (strain MLY22)
T2 sequence (Q6BN62 entry or part of it): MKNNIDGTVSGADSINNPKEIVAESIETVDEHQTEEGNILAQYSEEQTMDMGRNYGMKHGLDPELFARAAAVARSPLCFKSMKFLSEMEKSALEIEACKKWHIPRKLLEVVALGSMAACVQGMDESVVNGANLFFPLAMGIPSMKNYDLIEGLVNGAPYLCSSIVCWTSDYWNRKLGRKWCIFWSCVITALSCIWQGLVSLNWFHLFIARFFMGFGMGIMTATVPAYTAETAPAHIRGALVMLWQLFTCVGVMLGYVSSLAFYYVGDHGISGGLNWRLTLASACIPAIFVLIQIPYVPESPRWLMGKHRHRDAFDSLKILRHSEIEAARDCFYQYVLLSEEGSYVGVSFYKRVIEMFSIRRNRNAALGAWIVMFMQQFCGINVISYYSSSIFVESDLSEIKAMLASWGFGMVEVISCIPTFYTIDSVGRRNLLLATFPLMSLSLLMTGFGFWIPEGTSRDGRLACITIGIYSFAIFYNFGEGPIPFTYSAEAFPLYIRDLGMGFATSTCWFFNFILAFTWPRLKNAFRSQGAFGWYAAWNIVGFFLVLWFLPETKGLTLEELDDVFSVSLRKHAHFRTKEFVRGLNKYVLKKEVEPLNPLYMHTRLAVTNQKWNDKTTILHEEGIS
Source text: initial extracellular alkalinization (H+ symport) in unbuffered yeast cell suspension, Michaelis-Menten fit on DhSgl1

[1] = substrate: OC[C@@H](O)C(O)[C@H](O)CO; assay: as above; format: cell-based, Debaryomyces hansenii; settings: pH 5, proton symport, one H+ per polyol assumed, maltose-grown S. cerevisiae cells
Source text: (§1) initial extracellular alkalinization (H+ symport) in unbuffered yeast cell suspension, Michaelis-Menten fit on DhSyl1

[2] = substrate: OC[C@@H](O)[C@@H](O)[C@@H](O)CO; assay: as above; format: cell-based, Debaryomyces hansenii; settings: pH 5, proton symport, one H+ per polyol assumed, maltose-grown S. cerevisiae cells
Source text: as §1

[3] = substrate: OC[C@@H](O)[C@@H](O)[C@H](O)[C@@H](O)CO; assay: as above; format: cell-based, Debaryomyces hansenii; settings: pH 5, proton symport, one H+ per polyol assumed, maltose-grown S. cerevisiae cells
Source text: as §1

[4] = substrate: OC[C@@H](O)[C@@H](O)[C@H](O)[C@H](O)CO; assay: as above; format: cell-based, Debaryomyces hansenii; settings: pH 5, proton symport, one H+ per polyol assumed, maltose-grown S. cerevisiae cells
Source text: as §1

[5] = substrate: OC[C@@H](O)[C@H](O)[C@H](O)[C@@H](O)CO; assay: as above; format: cell-based, Debaryomyces hansenii; settings: pH 5, proton symport, one H+ per polyol assumed, maltose-grown S. cerevisiae cells
Source text: as §1

[6] = substrate: O[C@H]1[C@H](O)[C@H](O)[C@@H](O)[C@H](O)[C@H]1O; assay: as above; format: cell-based, Debaryomyces hansenii; settings: pH 5, proton symport, one H+ per polyol assumed, maltose-grown S. cerevisiae cells
Source text: initial extracellular alkalinization (H+ symport) in unbuffered yeast cell suspension, Michaelis-Menten fit on DhSyi1

[7] = substrate: OC[C@@H](O)C(O)[C@H](O)CO; assay: as above; format: cell-based, Debaryomyces hansenii; settings: pH 5, proton symport, one H+ per polyol assumed, maltose-grown S. cerevisiae cells; remark: listed apart in the source
Source text: (§2) initial extracellular alkalinization (H+ symport) in unbuffered yeast cell suspension, Michaelis-Menten fit on DhSyl2

[8] = substrate: OC[C@@H](O)[C@@H](O)[C@@H](O)CO; assay: as above; format: cell-based, Debaryomyces hansenii; settings: pH 5, proton symport, one H+ per polyol assumed, maltose-grown S. cerevisiae cells; remark: listed apart in the source
Source text: as §2

[9] = substrate: OC[C@@H](O)[C@@H](O)[C@H](O)[C@@H](O)CO; assay: as above; format: cell-based, Debaryomyces hansenii; settings: pH 5, proton symport, one H+ per polyol assumed, maltose-grown S. cerevisiae cells; remark: listed apart in the source
Source text: as §2

[10] = substrate: OC[C@@H](O)[C@@H](O)[C@H](O)[C@H](O)CO; assay: as above; format: cell-based, Debaryomyces hansenii; settings: pH 5, proton symport, one H+ per polyol assumed, maltose-grown S. cerevisiae cells; remark: listed apart in the source
Source text: as §2

`OC[C@@H](O)[C@@H](O)[C@H](O)[C@H](O)CO` [D-Mannitol] was tested, and the “% reduction of sorbitol uptake at 20 mM” value (DhSyl1) was 70%.

Work on `OC[C@@H](O)[C@H](O)[C@H](O)[C@@H](O)CO` [D-Galactitol] yielded a Km (DhSgl1) of 1.93 ± 0.77 mM.

B1: DhSyl1 (Debaryomyces hansenii CBS767) (protein)
chain: T1 sequence (B5RT81 1-649)
notes: full-length ORF (649 aa) without stop, C-terminal GFP, plasmid pUG35, in S. cerevisiae YSH 1172 (strain MLY9); any CUG codon is read as Leu in the host
In the case of B1, the Km [1] is reported as 0.96 ± 0.32 mM, the Km [2] is reported as 11.44 ± 4.46 mM and the Km [3] is reported as 11.51 ± 2.50 mM. It also gave a Km [4] of 0.30 ± 0.09 mM and a Km [5] of 12.33 ± 1.50 mM.

B2: DhSyi1 (Debaryomyces hansenii CBS767) (protein)
chain: MATEDKELGVVITDVSKLSEKIEEQNNIISKGGSVDDYLYEKRPWWKVNYLVRLNFCIFLITLSSTNNGYDGSMLNGLQSVSYWPEKMGNPQGSVLGALSNGNVFGVVLSFVCASWLADKFGRWRCIFVGQTITILGSILQGVSTNYGFFLASRIILGFGVGIAGVSSPSLISELAYPTHRATATTFYNVCWYLGAIIAAWVTYGTLNIENDYSWRIPSYLQAALPCLQIAFFWMVPESPRYLINKDRISDAEKVLRKFHAGGETHERANDLVSFEIEEIQAALEIEKLSSNSRYSDFITMPTFRKRLFLAVFVAVIMQLSGNGLVSYYLNKVLNSIGITDPHEQLKINGCLMVYNLVISSVVASVAGRFKRRSMFLICTILMLVFYVIWTILSAINQQRNFEQKSLGNGVIAMIFFYYLAYDIGANGLPFLYITEIMPYSHRAKGMNIFTVSQNIIIIFNGFVNPIAMDAIEWKYYIVYCCILAVEVITVLFTFVETSAYTLEEVAKVFGDDPGQTLIHLSSAPPKPEVGHIETV
notes: full-length ORF (536 aa) without stop, C-terminal GFP, plasmid pUG35, in S. cerevisiae YSH 1172 (strain MLY23); any CUG codon is read as Leu in the host
B2 was tested, and the Km [6] was 18.64 ± 9.23 mM.

B3: DhSyl2 (Debaryomyces hansenii CBS767) (protein)
chain: MPSETNPEKPVALRSDNPHEENGLFEHSSNSSFNEKRRVSELESIHSKIAEPGQGEKGNILSQYSEKQVMQMGRNYALKYDLDPDLFARAAALARTPDDFNAMPFITEEEKQALHKEHTKKWHIPSKLIQVIALGSMAAAVQGMDESVINGALLFYPNYMGVGKGEYNRFGYDTDMIEGLINGAPYLCASCIACWMSDLWNRHLGRKWTIFWTCLISALTCFWQGFTNTWYHLFIARFMLGFGIGIKSATVPAYAAECTPKQIRGALVMLWQFFTAVGIMFGYVACLAFYHVGDHGIGGGLNWRLMLGSACIPAIIVLFQIPFVPESPRWLMGKDRHKDSYDSLCQLRLDKIAAARDTFYQYVLLQEEASYQGIPTWKRLVEMFTIRRNRNGALGAWIVMFMQQFCGINAIVYYNSTIFIQGGFTEVDALTASWGFGMVNFLFAIPTFYTIDTFGRRNLLLFTFPLMALFLIWTGLGFVAEDGTKTQTGIVASGVYIFSAIYSAGEGPVPFTYSAEAFPLYIRDIGMGFATATCWFFNFILALTWPKLVSSFGRTGAFMWYAAWNIAGFFMVLWFLPETKGLTLEELDEVFSVSTRKHAIYQTKSILNSFQRVVLRRHIDPLPPLYEHQKRLAVTNPDWNNKTETAHIE
notes: full-length ORF (649 aa) without stop, C-terminal GFP, plasmid pUG35, in S. cerevisiae YSH 1172 (strain MLY12); any CUG codon is read as Leu in the host
In the case of B3, the Km [7] is reported as 0.46 ± 0.21 mM, the Km [8] is reported as 18.31 ± 3.23 mM and the Km [9] is reported as 13.82 ± 2.12 mM. The Km [10] was 0.93 ± 0.16 mM.
